Substrate in this data set: Nc1nc2c(ncn2[C@@H]2O[C@H](COP(=O)(O)OP(=O)(O)OP(=O)(O)O)[C@@H](O)[C@H]2O)c(=O)[nH]1
In words: purified protein. In kind it is biochemical, Saccharomyces cerevisiae. Conditions: pH 8.0, 300 mM NaCl, 5 mM MgCl2, 30°C, labelled compound, Snu114 without Prp8.

This is an account of results in paper PMC7192624.

B1: Snu114^72-1008 (isolated) (Saccharomyces cerevisiae S288C) (protein)
chain: KEVEVLMETKNTQSPQTPLVEPVTERTKLQEHTIFTQLKKNIPKTRYNRDYMLSMANIPERIINVGVIGPLHSGKTSLMDLLVIDSHKRIPDMSKNVELGWKPLRYLDNLKQEIDRGLSIKLNGSTLLCTDLESKSRMINFLDAPGHVNFMDETAVALAASDLVLIVIDVVEGVTFVVEQLIKQSIKNNVAMCFVINKLDRLILDLKLPPMDAYLKLNHIIANINSFTKGNVFSPIDNNIIFASTKLGFTFTIKEFVSYYYAHSIPSSKIDDFTTRLWGSVYYHKGNFRTKPFENVEKYPTFVEFILIPLYKIFSYALSMEKDKLKNLLRSNFRVNLSQEALQYDPQPFLKHVLQLIFRQQTGLVDAITRCYQPFELFDNKTAHLSIPGKSTPEGTLWAHVLKTVDYGGAEWSLVRIYSGLLKRGDTVRILDTSQSESRQKRQLHDISKTETSNEDEDEDDETPSCEVEEIGLLGGRYVYPVHEAHKGQIVLIKGISSAYIKSATLYSVKSKEDMKQLKFFKPLDYITEAVFKIVLQPLLPRELPKLLDALNKISKYYPGVIIKVEESGEHVILGNGELYMDCLLYDLRASYAKIEIKISDPLTVFSESCSNESFASIPVSNSISRLGEENLPGLSISVAAEPMDSKMIQDLSRNTLGKGQNCLDIDGIMDNPRKLSKILRTEYGWDSLASRNVWSFYNGNVLINDTLPDEISPELLSKYKEQIIQGFYWAVKEGPLAEEPIYGVQYKLLSISVPSDVNIDVMKSQIIPLMKKACYVGLLTAIPILLEPIYEVDITVHAPLLPIVEELMKKRRGSRIYKTIKVAGTPLLEVRGQVPVIESAGFETDLRLSTNGLGMCQLYFWHKIWRKVPGDVLDKDAFIPKLKPAPINSLSRDFVMKTRRRKGISTGGFMSNDGPTLEKYISAELYAQLRENGLVP
notes: residues 72-1008 (acidic N-terminal region truncated), C-terminal Strep tag (pIDS-C-Strep), synthetic gene, recombinant in insect cells (MultiBac)
Regarding B1, the Michaelis constant (Km) turned out to be 578.4 µM and the kcat stood at 0.001012 s⁻¹.

The term Km denotes the concentration of substrate that gives half-maximal velocity. The kcat is the number of substrate molecules converted per active site and unit of time at saturation.
